Data published in US11440969B2, “Use of human epididymis protein 4 (HE4) for assessing responsiveness of MUC 16-positive cancer treatment” (Genentech, Inc., priority 2016, dated 2022).

Assay: Safety of DMUC5754A in patients: related adverse events, DLT, MTD/RP2D (NCI CTCAE v4.0)
Type: in vivo, human
Details: for On study PN = No, patients n (%) / On study PN = Yes, patients n (%) / Median time to onset of first PN on study: q1w dosing
Description: This multicenter, open-label, dose-escalation study was designed to identify the recommended Phase II dose (RP2D) of DMUC5754A in patients with platinum-resistant OC or unresectable pancreatic cancer. In the single-agent dose escalation stage utilizing a 3+3 enrollment scheme, patients were given intravenous DMUC5754A (Genentech Inc.) 0.3-3.2 mg/kg every 3 weeks (q3w) to evaluate the safety, tolerability, and pharmacokinetics of DMUC5754A. Following determination of the maximum tolerated dose (MTD), dose-expansion cohorts were enrolled at the RP2D of 2.4 mg/kg to further characterize the safety and preliminary clinical efficacy of DMUC5754A.
Dosing on a weekly (qlw) schedule was also evaluated at the RP2D, employing a 3+3 design to determine the MTD of weekly dosing, followed by a cohort expansion to further characterize the safety and activity of q1w dosing.
Safety was evaluated according to NCI CTCAE v4.0. […] The maximum tolerated dose (MTD) was defined as the dose at which ≤1 of 6 patients at an assigned dose with protocol-defined DLT. Patients who experienced a DLT or adverse event (AE) meeting DLT criteria after the DLT assessment window were allowed to delay dosing for up to 2 weeks or undergo a dose reduction.

[1] = q1w patients, over all dose levels

B1: DMUC5754A: antibody-drug conjugate: humanized IgG1 anti-MUC16 monoclonal antibody and MMAE, linked through protease labile linker maleimidocaproyl-valine-citrulline-p-aminobenzyloxycarbonyl (conjugate, chains of the INN, looked up)
VH: EVQLVESGGGLVQPGGSLRLSCAASGYSITNDYAWNWVRQAPGKGLEWVGYISYSGYTTYNPSLKSRFTISRDTSKNTLYLQMNSLRAEDTAVYYCARWTSGLDYWGQGTLVTVSS
VL: DIQMTQSPSSLSASVGDRVTITCKASDLIHNWLAWYQQKPGKAPKLLIYGATSLETGVPSRFSGSGSGTDFTLTISSLQPEDFATYYCQQYWTTPFTFGQGTKVEIK
modifications: MMAE via mc-vc-PABC linker
3.2 mg/kg q3w, OC, 1 Grade 4 hypocalcaemia and 1 Grade 3 uric acid increase, in 2 of 3 DLT-evaluable patients
  protocol-defined DLTs: 2
q1w 0.8 mg/kg (n = 3)
  Alopecia (related AE), patients n (%): 0
  Anemia (related AE), patients n (%): 1 (33.3%)
  Any adverse events (related), patients n (%): 2 (66.7%)
  Arthralgia (related AE), patients n (%): 0
  Aspartate aminotransferase increased (related AE), patients n (%): 0
  Constipation (related AE), patients n (%): 1 (33.3%)
  Decreased appetite (related AE), patients n (%): 0
  Diarrhea (related AE), patients n (%): 0
  Fatigue (related AE), patients n (%): 0
  Headache (related AE), patients n (%): 0
  Hypomagnesaemia (related AE), patients n (%): 1 (33.3%)
  Hyponatremia (related AE), patients n (%): 0
  Nausea (related AE), patients n (%): 0
  Neutropenia (related AE), patients n (%): 1 (33.3%)
  Peripheral neuropathy (related AE), patients n (%): 0
  Vomiting (related AE), patients n (%): 0
q1w 1.1 mg/kg (n = 7)
  Alopecia (related AE), patients n (%): 1 (14.3%)
  Anemia (related AE), patients n (%): 3 (42.9%)
  Any adverse events (related), patients n (%): 7 (100.0%)
  Arthralgia (related AE), patients n (%): 2 (28.6%)
  Aspartate aminotransferase increased (related AE), patients n (%): 2 (28.6%)
  Constipation (related AE), patients n (%): 0
  Decreased appetite (related AE), patients n (%): 1 (14.3%)
  Diarrhea (related AE), patients n (%): 3 (42.9%)
  Fatigue (related AE), patients n (%): 2 (28.6%)
  Headache (related AE), patients n (%): 2 (28.6%)
  Hypomagnesaemia (related AE), patients n (%): 2 (28.6%)
  Hyponatremia (related AE), patients n (%): 1 (14.3%)
  Nausea (related AE), patients n (%): 4 (57.1%)
  Neutropenia (related AE), patients n (%): 1 (14.3%)
  Peripheral neuropathy (related AE), patients n (%): 1 (14.3%)
  Vomiting (related AE), patients n (%): 2 (28.6%)
q1w 1.4 mg/kg (n = 7)
  Alopecia (related AE), patients n (%): 2 (28.6%)
  Anemia (related AE), patients n (%): 2 (28.6%)
  Any adverse events (related), patients n (%): 5 (71.4%)
  Arthralgia (related AE), patients n (%): 1 (14.3%)
  Aspartate aminotransferase increased (related AE), patients n (%): 1 (14.3%)
  Constipation (related AE), patients n (%): 2 (28.6%)
  Decreased appetite (related AE), patients n (%): 3 (42.9%)
  Diarrhea (related AE), patients n (%): 0
  Fatigue (related AE), patients n (%): 2 (28.6%)
  Headache (related AE), patients n (%): 0
  Hypomagnesaemia (related AE), patients n (%): 0
  Hyponatremia (related AE), patients n (%): 1 (14.3%)
  Nausea (related AE), patients n (%): 4 (57.1%)
  Neutropenia (related AE), patients n (%): 1 (14.3%)
  Peripheral neuropathy (related AE), patients n (%): 2 (28.6%)
  Vomiting (related AE), patients n (%): 5 (71.4%)
q1w 1.6 mg/kg (n = 6)
  Alopecia (related AE), patients n (%): 2 (33.3%)
  Anemia (related AE), patients n (%): 2 (33.3%)
  Any adverse events (related), patients n (%): 6 (100.0%)
  Arthralgia (related AE), patients n (%): 0
  Aspartate aminotransferase increased (related AE), patients n (%): 1 (16.7%)
  Constipation (related AE), patients n (%): 0
  Decreased appetite (related AE), patients n (%): 1 (16.7%)
  Diarrhea (related AE), patients n (%): 2 (33.3%)
  Fatigue (related AE), patients n (%): 3 (50.0%)
  Headache (related AE), patients n (%): 1 (16.7%)
  Hypomagnesaemia (related AE), patients n (%): 2 (33.3%)
  Hyponatremia (related AE), patients n (%): 1 (16.7%)
  Nausea (related AE), patients n (%): 3 (50.0%)
  Neutropenia (related AE), patients n (%): 3 (50.0%)
  Peripheral neuropathy (related AE), patients n (%): 1 (16.7%)
  Vomiting (related AE), patients n (%): 2 (33.3%)
q1w All Patients (n = 23)
  Alopecia (related AE), patients n (%): 5 (21.7%)
  Anemia (related AE), patients n (%): 8 (34.8%)
  Any adverse events (related), patients n (%): 20 (87.0%)
  Arthralgia (related AE), patients n (%): 3 (13.0%)
  Aspartate aminotransferase increased (related AE), patients n (%): 4 (17.4%)
  Constipation (related AE), patients n (%): 3 (13.0%)
  Decreased appetite (related AE), patients n (%): 5 (21.7%)
  Diarrhea (related AE), patients n (%): 5 (21.7%)
  Fatigue (related AE), patients n (%): 7 (30.4%)
  Headache (related AE), patients n (%): 3 (13.0%)
  Hypomagnesaemia (related AE), patients n (%): 5 (21.7%)
  Hyponatremia (related AE), patients n (%): 3 (13.0%)
  Nausea (related AE), patients n (%): 11 (47.8%)
  Neutropenia (related AE), patients n (%): 6 (26.1%)
  Vomiting (related AE), patients n (%): 9 (39.1%)
q1w cohorts, 3/23 patients
  patients with AEs leading to treatment discontinuation: 13.0%
Prior neuropathy = No
  On study PN = No, patients n (%): 10 (43%)
  On study PN = Yes, patients n (%): 2 (9%)
Prior neuropathy = Yes
  Median time to onset of first PN on study: 190 days
  On study PN = No, patients n (%): 9 (39%)
  On study PN = Yes, patients n (%): 2 (9%)
Total
  Median time to onset of first PN on study: 190 days
  On study PN = No, patients n (%): 19 (83%)
  On study PN = Yes, patients n (%): 4 (17%)
q1w patients
  Drug-related SAE dehydration, patients: 1
  Drug-related SAE diarrhea, patients: 1
  Drug-related SAE nausea, patients: 1
  Drug-related SAE posterior reversible encephalopathy syndrome, patients: 1
[1]
  alopecia, related AE: 21.7%
  anemia, related AE: 34.8%
  decreased appetite, related AE: 21.7%
  diarrhea, related AE: 21.7%
  fatigue, related AE: 30.4%
  hypomagnesaemia, related AE: 21.7%
  nausea, related AE: 47.8%
  neutropenia, related AE: 26.1%
  vomiting, related AE: 39.1%
q1w patients, total
  Grade ≥3 related diarrhea: 8.7%
  Grade ≥3 related hyponatraemia: 8.7%
  Grade ≥3 related neutropenia: 17.4%
q1w schedule
  RP2D: 1.4 mg/kg
q1w, at 1.4 mg/kg
  Grade ≥3 related diarrhea, patients: 0
  Grade ≥3 related hyponatraemia, patients: 0
  Grade ≥3 related neutropenia, patients: 1
q3w
  MTD dose: 2.4 mg/kg
q3w 0.3 mg/kg (n = 3)
  Alopecia (related AE), patients: 0
  Any adverse events (related), patients: 3
  Arthralgia (related AE), patients: 0
  Asthenia (related AE), patients: 0
  Decreased appetite (related AE), patients: 1
  Diarrhea (related AE), patients: 0
  Dysgeusia (related AE), patients: 0
  Fatigue (related AE), patients: 0
  Hypokalemia (related AE), patients: 0
  Hypomagnesaemia (related AE), patients: 1
  Hypophosphatemia (related AE), patients: 0
  Nausea (related AE), patients: 1
  Neutropenia (related AE), patients: 0
  Peripheral neuropathy (related AE), patients: 1
